This note sets out measurements from patent US20160032013A1 (Genentech, published 2016).

As usually defined, the Kd is the concentration at which binding is half-saturated. In general, EC50 (read off the curve) refers to the concentration at which the effect is half-maximal. High values mean a less potent agent, low ones a more potent agent. For orientation: EC50 means the concentration needed to bring the measured effect to its halfway point. A word on the koff: it is the first-order rate constant of dissociation. A word on the kon: it is a measure of how fast the partners come together.

The target in test [1] is T1, Mouse RON-hIgG1 Fc (murine RON Sema/PSI/IPT1, natural leader + R33-V684, fused to human IgG1 Fc) (mouse).
T1 construct: also called mRON-hFc; murine RON-Fc
Description: SPR (Biacore), anti-Fc chip, murine RON-Fc captured and MSP protein injected; table headed 'Similar High Affinities for Murine RON'. Here is the method:
(§1) Binding kinetics of RON to MSP β-Fc fusion proteins and MSP proteins to RON-Fc fusions were determined using a Biacore 3000 optical biosensor equipped with a research-grade CM5 sensor chip (GE Healthcare). Amine coupling reagents, N-ethyl-N′-dimethylamino-propylcarbodiimide (EDC), N-hydroxy-succinimide (NHS) and sodium ethanolamine HCl, pH 8.5, were obtained from GE Healthcare. Standard coupling protocols were used to tether a rabbit anti-human IgG1 or rabbit anti-murine IgG2a (Jackson ImmunoResearch Laboratories) onto the biosensor surface. A biosensor chip that was subjected to the amine coupling procedure with no protein coupled was used to correct for non-specific binding. […] Various concentrations (500-3.9 nM, 2-fold dilution series) of RON-His, were injected in HBS-P buffer (10 mM HEPES, pH 7.5, 150 mM NaCl, 0.005% P20) at 25° C. with a flow rate of 30 μL/min and dissociation monitored for 240 sec. Between measurements, the biosensor surfaces were regenerated with a 120 s pulse of 10 mM glycine-HCl pH 1.5 followed by a 120 s wash with running buffer.
To function as a RON agonist, MSPβ-IgG2a fusion proteins must bind the RON receptor. To assay binding, surface plasmon resonance was used to measure the affinity of full-length human MSP, human and mouse MSP β, and a number of human and mouse MSPβ-IgG2a fusions for immobilized RON receptor. […]
(In SPR one partner is held on a chip, and binding of the other changes the refractive index at the surface.)

The target in test [2] is T1, Mouse RON-hIgG1 Fc (murine RON …). Briefly: SPR (Biacore), anti-Fc chip; legend names murine RON-Fc; the sheet's scheme ('RON or MSP' over 'MSP-Fc or RON-Fc') and have the MSPβ-Fc fusion captured and soluble RON-His injected. Here is the method: as §1
For test [3], the target named is T2, Mouse RON on cells (3T3-mRON cells; mouse colon and skin) (mouse, UniProt Q62190 24-1378).
T2 sequence: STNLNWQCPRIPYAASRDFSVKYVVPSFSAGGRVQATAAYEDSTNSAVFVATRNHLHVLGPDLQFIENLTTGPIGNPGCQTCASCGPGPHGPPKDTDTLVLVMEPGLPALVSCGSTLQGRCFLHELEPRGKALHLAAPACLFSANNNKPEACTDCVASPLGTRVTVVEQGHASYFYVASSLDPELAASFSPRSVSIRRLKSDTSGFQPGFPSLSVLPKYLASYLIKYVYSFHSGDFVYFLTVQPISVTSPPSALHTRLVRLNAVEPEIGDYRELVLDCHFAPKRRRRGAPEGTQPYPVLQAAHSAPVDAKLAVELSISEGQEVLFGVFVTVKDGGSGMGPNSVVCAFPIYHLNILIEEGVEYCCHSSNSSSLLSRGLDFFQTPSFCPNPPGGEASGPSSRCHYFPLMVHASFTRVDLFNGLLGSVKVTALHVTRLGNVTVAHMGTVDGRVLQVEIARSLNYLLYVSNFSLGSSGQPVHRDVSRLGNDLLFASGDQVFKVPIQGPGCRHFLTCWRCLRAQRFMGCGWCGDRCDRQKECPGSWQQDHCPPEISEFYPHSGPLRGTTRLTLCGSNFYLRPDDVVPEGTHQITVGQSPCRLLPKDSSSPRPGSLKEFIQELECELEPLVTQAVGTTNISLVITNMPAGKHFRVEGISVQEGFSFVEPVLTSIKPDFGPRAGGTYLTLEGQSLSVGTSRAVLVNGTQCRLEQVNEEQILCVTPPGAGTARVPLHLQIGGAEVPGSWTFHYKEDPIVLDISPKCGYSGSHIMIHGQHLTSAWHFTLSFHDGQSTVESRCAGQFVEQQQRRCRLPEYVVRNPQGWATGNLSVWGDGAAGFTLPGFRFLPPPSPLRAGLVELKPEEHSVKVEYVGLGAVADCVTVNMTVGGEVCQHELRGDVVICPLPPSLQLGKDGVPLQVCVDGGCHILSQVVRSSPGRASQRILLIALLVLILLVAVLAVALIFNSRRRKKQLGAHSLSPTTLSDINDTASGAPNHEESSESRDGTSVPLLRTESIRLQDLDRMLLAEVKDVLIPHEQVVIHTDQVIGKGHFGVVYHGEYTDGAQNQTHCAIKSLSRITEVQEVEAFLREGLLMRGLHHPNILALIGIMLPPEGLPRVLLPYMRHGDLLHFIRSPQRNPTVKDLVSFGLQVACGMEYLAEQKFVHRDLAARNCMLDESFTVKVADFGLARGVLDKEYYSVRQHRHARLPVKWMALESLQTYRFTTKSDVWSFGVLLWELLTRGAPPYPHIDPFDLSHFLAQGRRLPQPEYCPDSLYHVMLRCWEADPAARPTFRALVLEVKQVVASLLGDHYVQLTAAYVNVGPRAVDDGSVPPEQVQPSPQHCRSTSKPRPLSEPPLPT
Briefly: cell-based or functional assay.

The target in test [4] is T2, Mouse RON on cells (3T3-mRON cells; …). Briefly: flow cytometry on 3T3-mRON cells. For orientation: In flow cytometry, cells or beads pass a laser one at a time.
Test [5] deals with T3, Human RON-hIgG1 Fc (RON Sema/PSI/IPT1 fused to human IgG1 Fc) (human).
T3 construct: also called RON-Fc; hRON-Fc
T3 sequence (chain, as listed by the source limits assumed): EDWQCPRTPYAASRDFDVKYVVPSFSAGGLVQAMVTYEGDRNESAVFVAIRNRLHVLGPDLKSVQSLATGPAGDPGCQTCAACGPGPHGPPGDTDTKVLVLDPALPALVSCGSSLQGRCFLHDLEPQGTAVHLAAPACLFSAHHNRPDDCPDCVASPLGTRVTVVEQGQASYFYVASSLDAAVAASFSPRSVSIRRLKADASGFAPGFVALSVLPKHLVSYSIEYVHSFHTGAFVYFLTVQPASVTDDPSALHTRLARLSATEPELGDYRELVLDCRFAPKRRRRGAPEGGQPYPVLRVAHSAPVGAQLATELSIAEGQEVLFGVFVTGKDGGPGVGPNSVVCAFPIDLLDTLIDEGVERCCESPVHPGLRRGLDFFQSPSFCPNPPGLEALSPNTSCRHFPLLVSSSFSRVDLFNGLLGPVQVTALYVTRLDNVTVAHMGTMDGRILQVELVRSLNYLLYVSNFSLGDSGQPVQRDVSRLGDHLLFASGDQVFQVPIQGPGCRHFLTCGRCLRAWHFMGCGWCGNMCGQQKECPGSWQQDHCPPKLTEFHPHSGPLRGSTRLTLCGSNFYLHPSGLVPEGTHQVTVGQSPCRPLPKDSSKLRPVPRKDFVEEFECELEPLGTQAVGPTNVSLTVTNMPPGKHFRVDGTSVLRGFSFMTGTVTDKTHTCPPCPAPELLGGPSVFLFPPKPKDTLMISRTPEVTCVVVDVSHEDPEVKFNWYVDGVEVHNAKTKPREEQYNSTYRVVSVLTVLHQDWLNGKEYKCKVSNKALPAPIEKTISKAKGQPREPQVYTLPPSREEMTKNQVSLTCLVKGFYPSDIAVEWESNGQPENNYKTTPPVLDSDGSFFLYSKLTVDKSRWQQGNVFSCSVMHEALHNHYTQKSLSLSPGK
Briefly: plate binding assay, plate-bound RON-Fc, soluble His-tagged MSP β, anti-His-HRP, 4-parameter fit. The source says:
Means of three replicates per group are shown. […] C presents results of SPR analysis of MSP proteins binding to immobilized RON Sema/PSI, showing relative response in response units. Data are representative of three independent experiments. […] Competition binding to 3T3-hRON cells (large graphs) used to generate affinities and Scatchard plots (inset graphs) are shown. Mean+/−standard deviation (SD) of three independent experiments is shown. E is a homology model of the structure of RON Sema/PSI (PDB code 4FWW) shown at the bottom, which binds to MSP β (PDB code 2ASU) shown on top. RON and MSP β were globally aligned to the Met/HGF β complex (PDB code 1SHY). Predicted locations of the MSP β contact residues within 4 Å of RON are marked by asterisks. […]
MaxiSorp plates (Nalge Nunc International) were coated overnight at 4° C. with 2 μg/ml of rabbit anti-human IgG Fc specific antibody (Jackson ImmunoResearch Laboratories) in 50 mM sodium carbonate buffer, pH 9.6. […] Bound MSP was detected using anti-His-HRP (Qiagen Inc.) followed by addition of TMB/H₂O₂ substrate (Thermo Scientific). The reaction was stopped with 1M H₃PO₄ and the absorbance at 450 nm (A₄₅₀) was measured on a SpectraMax Plus³⁸⁴ plate reader (Molecular Devices, LLC). The half maximal effective concentration of MSP (EC₅₀) was determined by a 4-parameter fit using Kaleidagraph (Synergy Software).

For test [6], the target named is T3, Human RON-hIgG1 Fc (RON Sema/PSI/IPT1 …). Description: SPR capturing RON-Fc at 25 C. Here is the method: To determine MSP protein binding kinetics to hRON-Fc or mRON-Fc fusion proteins, between 50 and 100 response units (RU) were captured on each of three immobilized anti-human Fc surfaces. Various concentrations (50-0.78 nM, 2-fold dilution series) of MSP, MSP β, MSP α or scMSP were injected in HBS-P buffer (10 mM HEPES, pH 7.5, 150 mM NaCl, 0.005% P20) at 25° C. with a flow rate of 30 μL/min and dissociation monitored for 4 min. Between measurements, the biosensor surfaces were regenerated with a 2 min pulse of 10 mM glycine-HCl pH 1.5.

Test [7] addresses T4, Recombinant human RON Sema/PSI (residues E25-P568) with C-terminal His-tag (human, UniProt Q04912 25-568).
T4 construct: Made in Trichoplusia ni insect cells
Briefly: SPR using immobilized RON Sema/PSI at 25 C.

Test [8] addresses T3, Human RON-hIgG1 Fc (RON Sema/PSI/IPT1 …). Briefly: BLI using RON-Fc at 30 C. Here is the method:
Real-time kinetic measurements of MSP binding to RON were conducted using an Octet RED384 (ForteBio, Inc). Samples or buffer were dispensed into 96-well microtiter plates (Greiner Bio-One North America, Inc.) at a volume of 200 μl per well. Anti-human IgG Fc Biosensors were used for the experiments. Each experiment consisted of three steps: incubation with ForteBio Kinetic buffer diluted 1:10 in PBS assay buffer to establish an equilibrium for 120 s (baseline), incubation with 10 μg/ml RON-Fc in assay buffer to coat the biosensor with binding target for 900 s (load), incubation with MSP, MSP β or scMSP in assay buffer containing various concentrations (75-4.7 nM, 2-fold dilution series) for 400 s (association), and incubation with assay buffer to measure the off-rate of MSP for 400 s (dissociation). Operating temperature was maintained at 30° C. Data were generated automatically by the Octet Data Acquisition 7.0 software. Each data set was fitted globally to a simple one-to-one binding model using ForteBio Analysis Software 7.0 to determine the kinetic parameters kₐ and kd. The equilibrium dissociation constants (KD) were then calculated as a ratio (koff/kₒₙ) of these rate constants.

B1: Hexahistidine-tagged murine MSP β (HGF leader + V489-E716 + C593A + C677A + His tag) (ligand)
chain: VVGGHPGNSPWTVSLRNRQGQHFCGGSLVKEQWVLTARQCIWSCHEPLTGYEVWLGTINQNPQPGEANLQRVPVAKAVCGPAGSQLVLLKLERPVILNHHVALIALPPEQYVVPPGTKCEIAGWGESIGTSNNTVLHVASMNVISNQECNTKYRGHIQESEICTQGLVVPVGACEGDYGGPLACYTHDAWVLQGLIIPNRVCARPRWPAIFTRVSVFVDWINKVMLEHHHHHHH
notes: also called Mouse MSP β
As to B1, the Kd in test [1] was determined as 6.4 nM.

B2: Mouse MSP β-L16-mIgG2a Fc (Fc fusion)
chain: VVGGHPGNSPWTVSLRNRQGQHFCGGSLVKEQWVLTARQCIWSCHEPLTGYEVWLGTINQNPQPGEANLQRVPVAKAVCGPAGSQLVLLKLERPVILNHHVALIALPPEQYVVPPGTKCEIAGWGESIGTSNNTVLHVASMNVISNQECNTKYRGHIQESEICTQGLVVPVGACEGDYGGPLACYTHDAWVLQGLIIPNRVCARPRWPAIFTRVSVFVDWINKVMQLEQVTDKKIEPRGPTIKPCPPCKCPAPNLLGGPSVFIFPPKIKDVLMISLSPIVTCVVVDVSEDDPDVQISWFVNNVEVHTAQTQTHREDYNSTLRVVSALPIQHQDWMSGKEFKCKVNNKDLPAPIERTISKPKGSVRAPQVYVLPPPEEEMTKKQVTLTCMVTDFMPEDIYVEWTNNGKTELNYKNTEPVLDSDGSYFMYSKLRVEKKNWVERNSYSCSVVHEGLHNHHTTKSFSRTPGK
notes: also called m16m
Regarding B2, in test [2], the Kd came out at 8.4 nM. Further, the “fold increase in Akt phosphorylation, MSD, colon of injected mice” value in test [3] is around 2.5 fold. For the same molecule, the “EC50 (read off the curve)” value in test [4] is around 0.05 µg/mL.

B3: Human MSP β 689R with wild-type C672 (HGF leader + V484-G711 + C588S + C672C + His tag) (ligand)
chain: VVGGHPGNSPWTVSLRNRQGQHFCGGSLVKEQWILTARQCFSSCHMPLTGYEVWLGTLFQNPQHGEPSLQRVPVAKMVCGPSGSQLVLLKLERSVTLNQRVALISLPPEWYVVPPGTKCEIAGWGETKGTGNDTVLNVALLNVISNQECNIKHRGRVRESEMCTEGLLAPVGACEGDYGGPLACFTHNCWVLEGIIIPNRVCARSRWPAVFTRVSVFVDWIHKVMRLGHHHHHH
In the case of B3, the 50% effective concentration (EC50) in test [5] is 0.05 nM.

B4: Human MSP β 689R (HGF leader + V484-G711 + C588S + C672A + His tag) (ligand)
chain: VVGGHPGNSPWTVSLRNRQGQHFCGGSLVKEQWILTARQCFSSCHMPLTGYEVWLGTLFQNPQHGEPSLQRVPVAKMVCGPSGSQLVLLKLERSVTLNQRVALISLPPEWYVVPPGTKCEIAGWGETKGTGNDTVLNVALLNVISNQECNIKHRGRVRESEMCTEGLLAPVGACEGDYGGPLACFTHNAWVLEGIIIPNRVCARSRWPAVFTRVSVFVDWIHKVMRLGHHHHHH
notes: This is an inference
On to B4, for which the Kd in test [6] came to 9.6 nM; in test [1], 5.1 nM; in test [7], 6.6 nM; in test [8] it was 7.5 nM. Moreover, the koff worked out at 0.0275 s⁻¹ in test [6], 0.0159 s⁻¹ in test [7] and 0.0025 s⁻¹ in test [8]. In addition, the kon is 3.53e+06 M⁻¹ s⁻¹ in test [6], 2.45e+06 M⁻¹ s⁻¹ in test [7] and 388000 M⁻¹ s⁻¹ in test [8].
